One block for each binder: values may come before it.
Tests used:
[1] = molecular target: human PD1 on Jurkat/AP1-luc/hPD1 cells (human) (UniProt Q15116); assay: cell-based or functional assay
[2] = molecular target: human 4-1BB expressed with a C-terminal myc-myc-hexahistidine tag (h4-1BB.mmH) (human); assay: blocking ELISA, 0.25 nM h4-1BB-mmh binding to coated 6His-Flag-h4-1BBL
human 4-1BB expressed with a C-terminal myc-myc-hexahistidine tag (h4-1BB.mmH) (human), sequence (chain, as listed by the source limits assumed): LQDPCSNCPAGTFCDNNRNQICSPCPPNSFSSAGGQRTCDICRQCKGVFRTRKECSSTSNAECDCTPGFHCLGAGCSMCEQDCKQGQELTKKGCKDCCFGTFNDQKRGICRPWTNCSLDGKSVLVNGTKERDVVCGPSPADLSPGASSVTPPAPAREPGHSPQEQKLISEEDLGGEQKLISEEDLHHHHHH

human PD1 on Jurkat/AP1-luc/hPD1 cells (human), sequence (Q15116 25-288): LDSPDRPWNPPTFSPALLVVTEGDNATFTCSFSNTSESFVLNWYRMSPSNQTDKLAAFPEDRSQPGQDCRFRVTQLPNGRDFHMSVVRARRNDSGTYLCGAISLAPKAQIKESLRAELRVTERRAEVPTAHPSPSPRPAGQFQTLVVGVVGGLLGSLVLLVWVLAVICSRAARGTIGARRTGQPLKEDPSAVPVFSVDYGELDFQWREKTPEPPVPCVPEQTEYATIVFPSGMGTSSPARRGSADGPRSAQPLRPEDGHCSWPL

- AP-1 luciferase EC50, Jurkat/AP1-luc/hPD1 + WSU-DLCL2/hPD-L1 + CD20xCD3 [1]: 290 pM
- AP-1 luciferase MAX (RLU), Jurkat/AP1-luc/hPD1 + WSU-DLCL2/hPD-L1 + CD20xCD3 [1]: 1.1e+06 RLU
B1: REGN2810 (antibody, INN chains, looked up, V domains shown)
VH: EVQLLESGGVLVQPGGSLRLSCAASGFTFSNFGMTWVRQAPGKGLEWVSGISGGGRDTYFADSVKGRFTISRDNSKNTLYLQMNSLKGEDTAVYYCVKWGNIYFDYWGQGTLVTVSS
VL: DIQMTQSPSSLSASVGDSITITCRASLSINTFLNWYQQKPGKAPNLLIYAASSLHGGVPSRFSGSGSGTDFTLTIRTLQPEDFATYYCQQSSNTPFTFGPGTVVDFR

- % Blocking at 100 nM mAb [2]: 72%
B2: Comparator 1 (antibody, INN chains, looked up, V domains shown)
VH: EVQLVQSGAEVKKPGESLRISCKGSGYSFSTYWISWVRQMPGKGLEWMGKIYPGDSYTNYSPSFQGQVTISADKSISTAYLQWSSLKASDTAMYYCARGYGIFDYWGQGTLVTVSS
VL: SYELTQPPSVSVSPGQTASITCSGDNIGDQYAHWYQQKPGQSPVLVIYQDKNRPSGIPERFSGSNSGNTATLTISGTQAMDEADYYCATYTGFGSLAVFGGGTKLTVLG

— patent US20250043017A1
